± gives the uncertainty stated by the source.
Assay: protein stability index of a GFP-peptide fusion (yeast GPS) (PSI 1-4); higher = more stable; sorted into four equal gates, so the index is relative within each strain
Method in brief: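 Tiled 17-residue yeast protein peptides were fused downstream of GFP in a plasmid that also expresses Cherry, and the pooled library was carried in yeast. Mid-log cultures in leucine-free medium were sorted into four equal gates by GFP/Cherry fluorescence ratio, and plasmids from each gate were PCR-amplified and Illumina-sequenced, with reads assigned to strains by barcodes. The protein stability index for each peptide was each gate's read frequency times its gate number, summed.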

Row | Sequence | protein stability index (doa10∆) | protein stability index (pdr5∆) | protein stability index (san1∆) | protein stability index (ubr1∆)
1 | FKVQELLHSKPSLLLQK [NAS6] | 2.23 ± 0.13 | 2.3 ± 0.074 | 2.64 ± 0.14 | 2.31 ± 0.084
2 | FKYIYELILAGAIDEAL [YDL116W/NUP84] | 1.6 ± 0.074 | 1.5 ± 0.073 | 1.44 ± 0.1 | 1.52 ± 0.067
3 | FKYVEDRFPLKLREPVA [ITC1] | 2.42 ± 0.094 | – | 1.81 ± 0.26 | 2.73 ± 0.093
4 | FLDGIYVSHKGFITEDL [RPL9A] | 2.38 ± 0.081 | 2.62 ± 0.063 | 2.43 ± 0.1 | 3.29 ± 0.07
5 | FLDYTTDNVSMYPSPTG [PRP8] | 2.85 ± 0.056 | 2.85 ± 0.06 | 2.7 ± 0.06 | 2.95 ± 0.057
6 | FLERKCVHMVYEYAEHD [SSN3] | 1.71 ± 0.061 | 1.67 ± 0.071 | 1.69 ± 0.09 | 1.83 ± 0.046
7 | FLGYKAGMTTIVRDLDR [RPL3] | 2.48 ± 0.12 | 3.17 ± 0.18 | 2.93 ± 0.078 | 3.14 ± 0.1
8 | FLIIVPKSTLDNWRREF [ISW2] | – | 2.37 ± 0.27 | 1.94 ± 0.16 | 1.99 ± 0.22
9 | FLKERLMEASDAFRVHI [RPB2] | 1.66 ± 0.073 | 1.7 ± 0.12 | 2 ± 0.15 | 1.74 ± 0.1
10 | FLKKLRNEQVTIELKNG [SMD1] | 2.49 ± 0.051 | 2.24 ± 0.044 | 2.42 ± 0.056 | 2.67 ± 0.039
11 | FLLRRVKADVEKSLLPK [ISW2] | 3.19 ± 0.13 | 3.05 ± 0.17 | 3.02 ± 0.079 | 2.94 ± 0.1
12 | FLPFNNSASNNGNLTSN [SWI1] | 2.94 ± 0.093 | 3.02 ± 0.094 | 3.07 ± 0.058 | 2.9 ± 0.099
13 | FLPKLNSVRNSLLLAHF [NUT1] | 2.15 ± 0.04 | 1.5 ± 0.046 | 1.65 ± 0.07 | 1.81 ± 0.029
14 | FLQHPDEEYPVKVKVSY [PRP8] | 3.24 ± 0.083 | 3.18 ± 0.11 | 3.21 ± 0.082 | 2.63 ± 0.063
15 | FLTVSKLWAEIIVKILY [GRR1] | 1.55 ± 0.046 | 1.97 ± 0.058 | 1.53 ± 0.087 | 1.37 ± 0.048
16 | FMKSVIRSREAFSYEQA [DIS3] | 2.28 ± 0.11 | 2.73 ± 0.082 | 2 ± 0.13 | 2.71 ± 0.12
17 | FNAPATGNGTTTTSNTS [YOR098C/NUP1] | 2.44 ± 0.034 | 2.83 ± 0.035 | 2.8 ± 0.035 | 2.836 ± 0.027
18 | FNDFSNIKTSEWDLYPQ [REC8] | 2.84 ± 0.082 | 2.92 ± 0.053 | 2.78 ± 0.075 | 3.15 ± 0.082
19 | FNGAQLKAVTVEAGMIA [RPT5] | 2.73 ± 0.28 | 2.62 ± 0.15 | – | 2.03 ± 0.19
20 | FNGYNPEKKEMIQEVIV [FAS2] | 3.39 ± 0.086 | 3.46 ± 0.1 | 3.4 ± 0.08 | 3.4 ± 0.11
21 | FNSFRRFKSQFLYVLIP [QCR8] | 1.63 ± 0.1 | 1.69 ± 0.069 | 1.56 ± 0.12 | 1.4 ± 0.054
22 | FNVVDVGVDQLSIELEG [YJL039C/NUP192] | 3.49 ± 0.076 | 3.34 ± 0.058 | 3.29 ± 0.038 | 3.37 ± 0.049
23 | FNYVQECPAIPIFNYIF [YJL039C/NUP192] | 1.9 ± 0.072 | 1.75 ± 0.056 | 1.88 ± 0.082 | 1.85 ± 0.042
24 | FPEENIIDAKTRNEQTT [MCD1] | 3.29 ± 0.09 | 3.16 ± 0.057 | 3.19 ± 0.052 | 3.08 ± 0.054
25 | FPPNLEKGENPSCVYNL [UBP6] | 2.79 ± 0.1 | 1.7 ± 0.088 | 1.15 ± 0.16 | 1.11 ± 0.064

Row | Sequence | protein stability index (doa10∆) | protein stability index (pdr5∆) | protein stability index (san1∆) | protein stability index (ubr1∆)
26 | FQAVIQKSINHPPDFKR [SNF2] | 2.8 ± 0.12 | 2.98 ± 0.19 | 3.02 ± 0.14 | 3.19 ± 0.11
27 | FQDTLYKKIPLLGPTLE [QCR10] | 2.84 ± 0.13 | 2.94 ± 0.11 | 2.47 ± 0.18 | 2.95 ± 0.1
28 | FRCKETHSYNFMRQNLE [RPC82] | 2.52 ± 0.078 | 1.88 ± 0.093 | 1.96 ± 0.093 | 2.44 ± 0.065
29 | FSHPAHQQRMSRTAADI [YCG1] | 2.01 ± 0.07 | 2.15 ± 0.093 | 2.4 ± 0.074 | 2.13 ± 0.06
30 | FSHSLTTILSFSSPAAL [NUT1] | 1.46 ± 0.031 | 1.38 ± 0.029 | 1.35 ± 0.063 | 1.32 ± 0.026
31 | FSKFERSKSSHKNERRV [SKI6] | 3.16 ± 0.082 | 3.16 ± 0.08 | 3 ± 0.064 | 3.25 ± 0.07
32 | FSNVELPQCIIPSSYIK [ARP7] | 2.38 ± 0.042 | 2.38 ± 0.041 | 2.28 ± 0.051 | 2.45 ± 0.032
33 | FSQEALQYVVERVGKRT [FAS1] | 1.07 ± 0.091 | 1.24 ± 0.11 | – | 1.17 ± 0.09
34 | FSSNLSYANHLEESDVE [YOR098C/NUP1] | 2.45 ± 0.087 | 2.22 ± 0.059 | 1.91 ± 0.082 | 1.89 ± 0.052
35 | FSVRTKDSNKDVVVEGL [RPL10] | 2.14 ± 0.051 | 2.32 ± 0.055 | 2.13 ± 0.073 | 2.77 ± 0.054
36 | FSYQEVEFKLPKELVPS [CDC53] | 2.13 ± 0.056 | 2.16 ± 0.045 | 2.07 ± 0.076 | 1.91 ± 0.047
37 | FTGEKPIITGSTSTSSS [MED8] | 2.71 ± 0.062 | 2.7 ± 0.054 | 2.78 ± 0.052 | 2.13 ± 0.043
38 | FTVDKKIAERSLLLKNY [SKP1] | 3.44 ± 0.15 | 3.11 ± 0.14 | 2.92 ± 0.14 | 3.38 ± 0.27
39 | FVFQTVFDTAITSWYEN [QCR9] | 1.66 ± 0.054 | 1.6 ± 0.039 | 1.74 ± 0.077 | 1.97 ± 0.044
40 | FVIGEQGKPYISLPKGK [RPS4A] | 3.34 ± 0.068 | 3.21 ± 0.065 | 3.25 ± 0.051 | 2.41 ± 0.053
41 | FVKNIRMLSFEDISKAT [RPN9] | 2.66 ± 0.063 | 1.86 ± 0.076 | 1.91 ± 0.078 | 1.93 ± 0.053
42 | FVLLEIEPVTKVSSLKM [YCS4] | 2.34 ± 0.049 | 2.18 ± 0.066 | 2.48 ± 0.059 | 2.35 ± 0.054
43 | FWSFLDSLIFKDSSLNY [YJL039C/NUP192] | 3.22 ± 0.076 | 2.74 ± 0.078 | 2.11 ± 0.15 | 2.46 ± 0.079
44 | FYDYIKERSIVVGRTTR [REC8] | 1.9 ± 0.077 | 1.72 ± 0.064 | 1.22 ± 0.13 | 1.17 ± 0.045
45 | FYGVLDQGNGWLYVYET [RPN6] | 2.9 ± 0.095 | 2.65 ± 0.073 | 1.9 ± 0.095 | 3.02 ± 0.071
46 | FYQQVHKKDRLQYLPLY [SIR4] | 1.64 ± 0.063 | 1.77 ± 0.058 | 1.75 ± 0.11 | 1.67 ± 0.048
47 | GAETDELSMIMEHFSQQ [RPS12] | 2.88 ± 0.088 | 3.25 ± 0.1 | 3.35 ± 0.059 | 3.23 ± 0.089
48 | GAFTIALAYAGTGNNSA [RPN2] | 2.09 ± 0.068 | 2.32 ± 0.083 | 1.99 ± 0.099 | 2.15 ± 0.053
49 | GAGGLNPFTSATSSTNA [YOR098C/NUP1] | 2.04 ± 0.12 | 2.07 ± 0.18 | 2.69 ± 0.18 | 2.94 ± 0.13
50 | GAGIERELARIKKYASV [RPL3] | 3.49 ± 0.21 | 3.46 ± 0.17 | – | –

From the supplement of paper PMC9732359
